Results: US20240026037A1 (Memorial Sloan Kettering, published 2024)
Numbering of substitutions follows the chain as printed.

B1: G3A_VK3+VH1 (antibody, IgG1, V domains shown)
VH: EVQLVESGGGLVKPGGSLRLSCAASGFAFSTYDMSWVRQAPGKGLEWVSTISSGGSYTYYADSVKGRFTISRDNAKNSLYLQMNSLRAEDTAVYYCAPTTVVPFAYWGQGTLVTVSA
VL: DIQMTQSPSSLSTSVGDRVTITCKASQNVRTVVAWYQQKPGKAPKTLIYLASNRHSGVPSRFSGSGSGTEFTLTISNLQPEDFATYYCLQHWSYPLTFGSGTKLEVK
B2: G3A_VK6+VH3 (antibody, V domains shown)
VH: B1 VH with S49A, N74S
VL: B1 VL with T13A, T46R, S56T, Y87F
B3: G3A_VK6+VH1 (antibody, V domains shown)
VH: B1 VH
VL: B1 VL with T13A, T46R, S56T, Y87F
B4: G3A_VK8+VH1 (antibody, V domains shown)
VH: B1 VH
VL: B1 VL with T13A, T46R, S56T, T85D
B5: G3A_VK7+VH1 (antibody, V domains shown)
VH: B1 VH
VL: B1 VL with T13A, T46R, S56T, L78V
B6: G3A_VK5+VH1 (antibody, V domains shown)
VH: B1 VH
VL: B1 VL with T13A, S56T
B7: G3A_VK5+VH3 (antibody, V domains shown)
VH: B1 VH with S49A, N74S
VL: B1 VL with T13A, S56T
B8: G3A_VK7+VH3 (antibody, V domains shown)
VH: B1 VH with S49A, N74S
VL: B1 VL with T13A, T46R, S56T, L78V
B9: G3A_VK8+VH3 (antibody, V domains shown)
VH: B1 VH with S49A, N74S
VL: B1 VL with T13A, T46R, S56T, T85D
B10: G3A_VK4+VH3 (antibody, IgG1, V domains shown)
VH: B1 VH with S49A, N74S
VL: B1 VL with T13A, S56T
B11: G3A_VK3+VH3 (antibody, IgG1, V domains shown)
VH: B1 VH with S49A, N74S
VL: B1 VL
B12: G3A_chimeric (antibody, V domains shown)
VH: EVKLVESGGGLVKPGGSLKLSCAASGFAFSTYDMSWVRQTPEKRLEWVATISSGGSYTYYLDSVKGRFTISRDSARNTLYLQMSSLRSEDTALYYCAPTTVVPFAYWGQGTLVTVSA
VL: DIVMTQSQKFMSTSVGDRVSITCKASQNVRTVVAWYQQKPGQSPKTLIYLASNRHTGVPDRFTGSGSGTDFTLTISNVQSEDLADYFCLQHWSYPLTFGSGTKLEVK
B13: G3A_VK7+VH2 (antibody, V domains shown)
VH: B1 VH with S49A, A61L, N74S
VL: B1 VL with T13A, T46R, S56T, L78V
B14: G3A_VK8+VH2 (antibody, V domains shown)
VH: B1 VH with S49A, A61L, N74S
VL: B1 VL with T13A, T46R, S56T, T85D
B15: G3A_VK6+VH2 (antibody, V domains shown)
VH: B1 VH with S49A, A61L, N74S
VL: B1 VL with T13A, T46R, S56T, Y87F
B16: BC178 (bispecific antibody)
heavy: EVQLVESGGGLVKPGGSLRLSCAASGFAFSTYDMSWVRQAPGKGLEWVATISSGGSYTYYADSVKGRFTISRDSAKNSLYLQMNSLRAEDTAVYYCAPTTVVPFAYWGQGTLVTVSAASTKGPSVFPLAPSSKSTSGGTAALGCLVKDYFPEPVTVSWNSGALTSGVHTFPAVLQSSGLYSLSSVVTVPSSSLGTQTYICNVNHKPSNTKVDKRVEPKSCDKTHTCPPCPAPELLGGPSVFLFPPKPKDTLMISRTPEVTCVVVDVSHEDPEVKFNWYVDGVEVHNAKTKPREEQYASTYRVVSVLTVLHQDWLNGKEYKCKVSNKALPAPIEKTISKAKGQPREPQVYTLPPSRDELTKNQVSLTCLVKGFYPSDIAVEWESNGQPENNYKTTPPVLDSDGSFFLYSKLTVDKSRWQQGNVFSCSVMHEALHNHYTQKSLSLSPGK
light: DIQMTQSPSSLSTSVGDRVTITCKASQNVRTVVAWYQQKPGKAPKTLIYLASNRHSGVPSRFSGSGSGTEFTLTISNLQPEDFATYYCLQHWSYPLTFGSGTKLEVKRTVAAPSVFIFPPSDEQLKSGTASVVCLLNNFYPREAKVQWKVDNALQSGNSQESVTEQDSKDSTYSLSSTLTLSKADYEKHKVYACEVTHQGLSSPVTKSFNRGECTSGGGGSGGGGSGGGGSHVQLVESGGGLVQPGGSLRLSCAASGFSLTDYGVHWVRQAPGKGLEWLGVIWSGGGTAYNTALISRFTISRDNSKNTLYLQMNSLRAEDTAVYYCARRGSYPYNYFDAWGCGTLVTVSSGGGGSGGGGSGGGGSGGGGSGGGGSGGGGSQAVVTQEPSLTVSPGGTVTLTCGSSTGAVTASNYANWVQQKPGQCPRGLIGGHNNRPPGVPARFSGSLLGGKAALTLLGAQPEDEAEYYCALWYSDHWVIGGGTKLTVLG

molecular target: T1, Human GPA33 on GPA33+ colorectal cancer cell lines (Colo 205, LS 174T, SW 1222) (human, UniProt Q99795 22-319); assay: cell binding to LS174T Luc cells; IgG format
T1 construct: Endogenous GPA33 on human colorectal cancer cell lines; also called surface human GPA33; GPA33+ tumor cell lines
T1 sequence: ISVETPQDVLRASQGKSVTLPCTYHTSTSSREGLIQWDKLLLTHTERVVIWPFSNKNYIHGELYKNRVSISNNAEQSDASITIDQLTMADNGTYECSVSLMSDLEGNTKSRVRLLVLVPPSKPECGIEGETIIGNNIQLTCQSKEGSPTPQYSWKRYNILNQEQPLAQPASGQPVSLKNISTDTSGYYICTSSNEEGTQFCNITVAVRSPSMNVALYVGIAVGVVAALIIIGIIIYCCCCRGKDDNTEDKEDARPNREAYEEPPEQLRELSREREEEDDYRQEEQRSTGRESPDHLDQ

Binder | EC50 [µg/mL]
B1 | 0.642
B2 | 0.847
B3 | 0.402
B4 | 0.454
B5 | 0.481
B6 | 0.44
B7 | 0.424
B8 | 0.768
B9 | 0.433
B10 | 0.279
B11 | 0.398
B12 | 0.248
B13 | 0.576
B14 | 1.09

molecular target: T1, Human GPA33 on GPA33+ colorectal cancer …; assay: cell binding to SW1222 Luc cells; IgG format

Binder | EC50 [µg/mL]
B1 | 0.338
B2 | 0.614
B3 | 0.831
B4 | 0.568
B5 | 1.14
B6 | 0.496
B7 | 0.387
B9 | 0.792
B10 | 1.03
B11 | 0.391
B12 | 1
B13 | 0.795
B14 | 0.993
B15 | 1.07

molecular target: T2, Human GPA33 (recombinant protein, Novoprotein) (human, UniProt Q99795 22-235); assay: SPR (Biacore), human GPA33 immobilized on CM5 chip, two-state fit
T2 construct: Bought recombinant protein immobilized on a CM5 chip; also called GPA33 antigen; tumor antigen GPA33
T2 sequence: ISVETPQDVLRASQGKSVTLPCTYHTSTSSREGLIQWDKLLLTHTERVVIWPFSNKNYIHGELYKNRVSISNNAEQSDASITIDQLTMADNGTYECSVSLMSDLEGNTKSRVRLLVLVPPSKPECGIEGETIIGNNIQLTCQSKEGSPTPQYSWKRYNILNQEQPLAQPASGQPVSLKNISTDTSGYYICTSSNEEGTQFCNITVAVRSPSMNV
Description: (§1) SPR analysis. Human GPA33 (Novoprotein, Summit, NJ) was immobilized on CM5 chips. Five concentrations of 2-fold serially diluted huA33 IgG1 or huA33-BsAbs (starting at 20 nM) were flowed over the chip using a Biacore™ T100 system (GE Healthcare, Chicago, IL). Binding kinetics of huA33 were measured at 25° C. and binding kinetics of huA33-BsAbs were measured at both 25° C. and 37° C. The sensorgrams were fitted with two state binding model for both to derive kinetic parameters.

Binder | Kd [nM] | ka2 [s⁻¹] | kd2 [s⁻¹]
B16 | 0.00792 | 0.0541 | 0.00504

molecular target: T2, Human GPA33 (recombinant protein, …); assay: SPR (Biacore), human GPA33 immobilized on CM5 chip, two-state fit, ka1
Description: as §1

Binder | kon [M⁻¹ s⁻¹]
B16 | 5.5e+06

molecular target: T2, Human GPA33 (recombinant protein, …); assay: SPR (Biacore), human GPA33 immobilized on CM5 chip, two-state fit, kd1
Procedure, shortened: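 The off-rate (kd1) was determined by surface plasmon resonance against immobilised recombinant human GPA33, using a two-state binding model fit. Antibodies were tested on a CM5 chip in a Biacore T100 at five concentrations, from 20 nM in 2-fold serial dilutions. The parent IgG1 was measured at 25° C, and the bispecific formats at 25° C and 37° C.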

Binder | koff [s⁻¹]
B16 | 0.000511

molecular target: T2, Human GPA33 (recombinant protein, …); assay: SPR (Biacore), binding to GPA33 protein; IgG format
Description: as §1

Binder | Kd [nM]
B1 | 0.19
B2 | 1.45
B3 | 0.884
B4 | 0.975
B5 | 0.888
B6 | 0.171
B7 | 0.238
B8 | 1.62
B9 | 1.89
B10 | 0.236
B11 | 0.241
B12 | 0.196
B13 | 1.75
B14 | 1.85
B15 | 1.74
